Assay results published in article PMC7613265, “Multi-scale ensemble properties of the Escherichia coli RNA degradosome” (Molecular microbiology, 2021).

Target: the molecule itself
Test: cryo-EM structure; single particle analysis of RNase E (1-529) at 10 uM without RNA, 8 mM CHAPSO; 7.8 A reconstruction, C1

B1: RNase E catalytic domain (1-529) (domain or fragment)
chain: not shown
notes: RNase E, E. coli, catalytic domain, residues 1-529; Studied without RNA; 8 mM CHAPSO added before grid freezing; also called RNase E catalytic core; RNase E (1-529); source: E. coli BL21(DE3), plasmid pRne529-N, purified (Ni chelating column, gel filtration)
stoichiometry N: 4
